{"source": "paper PMC4041212", "key": {"BRCA1 [1]": {"target": "BRCA1 (UniProt P38398)", "assay": "anti-V5 co-IP, BRCA1 blot", "conditions": "reference: wild type V5-EXO1; sites S639,T732,S815,T824"}, "BRCA1 [2]": {"target": "BRCA1 (UniProt P38398)", "assay": "reverse co-IP", "conditions": "reference: wild type EXO1; sites S639,T732,S815,T824"}}}
{"substance": "EXO1 (from UniProt Q9UQ84) 4A-EXO1", "values": [{"measurement": "binding against the reference", "setting": "BRCA1 [1]", "result": "weaker"}, {"measurement": "binding against the reference", "setting": "BRCA1 [2]", "result": "weaker"}]}
